The supplement of paper PMC9170038

Tested on: MS2 coat protein
Assay: apparent KD of MS2 coat protein; designed switch direction (-1 OFF switch, 1 ON switch): -1; higher = weaker reporter binding
In short: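 Designed RNA switches were transcribed on Illumina chips by stalled E. coli RNA polymerase and titrated with SNAP-549-labelled MS2 coat protein from 0.7 or 1.5 nM, doubling to 3 µM. Step length ran from 0.8–1.5 h at the lowest concentration to 10–20 min at the highest. The apparent KD is the median over clusters for each design, from curve-fitted normalised cluster fluorescence.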

[1] = input ligand: microRNA oligo, concentration not stated
[2] = Eterna round: R95, input ligand: FMN 200 uM
[3] = Eterna round: R95, input ligand: microRNA oligo, concentration not stated
[4] = Eterna round: R95, input ligand: none

Row | Sequence | apparent KD of MS2 coat protein (input ligand: FMN 200 uM) [nM] | apparent KD of MS2 coat protein [1] [nM] | apparent KD of MS2 coat protein (input ligand: none) [nM] | apparent KD of MS2 coat protein [2] [nM] | apparent KD of MS2 coat protein [3] [nM] | apparent KD of MS2 coat protein [4] [nM]
1 | GGUUGGCGAGGAUAUACAUGAGGAUCACCCAUGUGAGAGAAAAAAGUGAGCAAGAAAAGUAGAAGGCGCUGACG [salish99_ex3_r3_030] (Eterna round: R96, puzzle: Exclusion 3) | 209 | 110 | 59.9 |  |  | 
2 | GGUUGGCGAGGAUAUACAUGAGGAUCACCCAUGUGAGAGAAAAAAGUGAGCAAGAAAAGUAGAAGGCGCUGACG [salish99_ex3_r3_030] (puzzle: Exclusion 3) |  |  |  | 627 | 75.7 | 27.5
3 | GGUUGGCGAGGAUAUACAUGAGGAUCACCCAUGUGAGAGAAAGAAGUGAGGAAGAAUAGUAGAAGGCGCUGACG [salish99_ex3_r3_056] (puzzle: Exclusion 3) |  |  |  | 746 | 56.1 | 69.1
4 | GGUUGGCGAGGAUAUACAUGAGGAUCACCCAUGUGAGAGAGAAAAGUGAGAACGAAAAGUAGAAGGCGCUGACG [salish99_ex3_r3_061] (puzzle: Exclusion 3) |  |  |  | 53.5 | 65.6 | 96.2
5 | GGUUGGCGAGGAUAUACAUGAGGAUCACCCAUGUGAGAUAAAAAAGUGAGGAAGAAAAGUAGAAGGCGCUGACG [salish99_ex3_r3_010] (puzzle: Exclusion 3) |  |  |  | 1140 | 71.5 | 85.1
6 | GGUUGGCGAGGAUAUACAUGAGGAUCACCCAUGUGAGCGAAAAAAGUGAGGAAGAAAAGUAGAAGGCGCUGACG [salish99_ex3_r3_020] (puzzle: Exclusion 3) |  |  |  | 236 | 40.1 | 63.5
7 | GGUUUACAAGGAUAUACAAAGGUCUUGUGAUCUGUGCGAGGACAUGAGGAUCACCCAUGUAGAAGGUGUCUGCU [Eternabot (L2) Solution 77] (Eterna round: R97, puzzle: Exclusion 2) | 193 |  | 114 |  |  | 
8 | GGUUUUCUUUUCCUUUCUUACAUGAGGAUCACCCAUGUUUCUUGUCGUGCUCGCGUUGCUCGUCUGUCUGUCUGUUG [salish99_TOv1_r3_076(!)] (puzzle: Sensor v3, turn-off variant 1) |  |  |  | 45.9 | 35.7 | 56.9
9 | GUAAAACAUGUAGGAUAUGCGUGGCGAAGCUAUGCAGAAGGACAUGAGGAUCACCCAUGUUAAAGCGUCUGCGUACAGAUGCAA [Mat - Exclusion NG 1 - Mod of JL - D94] (Eterna round: R96, puzzle: Exclusion NG 1) | 279 | 19.8 | 29.2 |  |  | 
10 | GUAAAGUGAGGAUAUGGUAAUUUAAUUAUUAAUUAAUUAAUCCAGAAGGCACAUGAGGAUCACCCAUGUAAAUG [Mat - Exclusion 4 - D90] (puzzle: Exclusion 4) |  |  |  |  | 31.6 | 
11 | GUAACAACUAGAGGAUAUCAGCACGUGUUGUGCUGAGAAGGCUAGAGUUACAUGAGGAUCACCCAUGUCUAGAGAUCAUUAAUU [ENG1/13-A4] (Eterna round: R96, puzzle: Exclusion NG 1) | 120 | 29.5 | 49.1 |  |  | 
12 | GUAACAACUAGAGGAUAUCAGCACGUUUAGUGCUGAGAAGGCUAGAGUUACAUGAGGAUCACCCAUGUCUAGAGAUCAUUAAUU [ENG1/13-A2] (Eterna round: R96, puzzle: Exclusion NG 1) | 177 | 66.3 | 83.8 |  |  | 
13 | GUAAUGCUGCGAGGAUAUACAUGAGGAUCACCCAUGUGGAUGUCUGAGGCAAAGCCUCAGACGAUGUAGAAGGCGCAGUAAAAU [Mat - Exclusion NG 2 - Mod of JL - D54] (Eterna round: R96, puzzle: Exclusion NG 2) | 85.7 | 17.6 | 44.4 |  |  | 
14 | GUACAACAUGAGGAUCACCCAUGUGAGGAUAUGCGAAUUUCAUCAAAAGAUGAAAUUUGCAGAAGGCACUGUAC [Omei Ex1 A10] (Eterna round: R97, puzzle: Exclusion 1) | 19.2 |  | 20.8 |  |  | 
15 | GUACUAAAGCUUUGCUUUAGUCGUACAUGAGGAUCACCCAUGUAGGAUAUGGUAAGCAUAGCUUACUAGAAGGAUAGAGUGAUC [Mat - Exclusion NG 3 - Mod of JL - D66] (Eterna round: R96, puzzle: Exclusion NG 3) | 285 | 146 | 145 |  |  | 
